Substitutions are numbered along the chain they refer to.
B1: SR-RC-AB9 (antibody, V domains shown)
VH: QVQLVQSGAEVKKPGSSVKVSCKASGGTFSSYSIQWVRQAPGQGLEWMGGIIPIFGVASYAQKFQGRVTITADESTSTAYMELSSLRSEDTAVYYCARGAIAATYGLGMDVWGQGTTVTVSS
VL: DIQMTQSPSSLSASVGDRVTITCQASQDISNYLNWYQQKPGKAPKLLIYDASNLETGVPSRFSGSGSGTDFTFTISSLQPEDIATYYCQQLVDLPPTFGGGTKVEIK
notes: Tested as a full-length antibody
B2: SR-RC-AB7 (antibody, V domains shown)
VH: B1 VH with K19R, S33A, A102V
VL: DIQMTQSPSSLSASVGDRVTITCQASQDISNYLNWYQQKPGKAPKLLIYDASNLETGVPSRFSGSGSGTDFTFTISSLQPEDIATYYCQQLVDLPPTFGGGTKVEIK
notes: as for B1
B3: SR-RC-AB8 (antibody, human IgG4, V domains shown)
VH: B1 VH with S30R, Q35S, S59N, I101Y, A102E
VL: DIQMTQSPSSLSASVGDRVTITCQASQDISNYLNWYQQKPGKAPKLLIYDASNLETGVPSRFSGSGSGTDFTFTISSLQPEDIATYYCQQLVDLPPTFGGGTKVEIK
B4: SR-RC-AB3 (antibody, V domains shown)
VH: B1 VH with S33A, Q35S, V57T, S59N
VL: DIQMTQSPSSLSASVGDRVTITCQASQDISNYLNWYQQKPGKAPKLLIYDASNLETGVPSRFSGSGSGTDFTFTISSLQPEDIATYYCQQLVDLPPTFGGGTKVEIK
notes: Tested as a full-length antibody, captured by anti-human IgG Fc sensors; also called parental antibody

Tests used:
[1] = molecular target: T1, recombinant, soluble human RGMc fused to an Fc (human, UniProt Q6ZVN8 36-400, limits assumed); assay: cell-based or functional assay
T1 sequence: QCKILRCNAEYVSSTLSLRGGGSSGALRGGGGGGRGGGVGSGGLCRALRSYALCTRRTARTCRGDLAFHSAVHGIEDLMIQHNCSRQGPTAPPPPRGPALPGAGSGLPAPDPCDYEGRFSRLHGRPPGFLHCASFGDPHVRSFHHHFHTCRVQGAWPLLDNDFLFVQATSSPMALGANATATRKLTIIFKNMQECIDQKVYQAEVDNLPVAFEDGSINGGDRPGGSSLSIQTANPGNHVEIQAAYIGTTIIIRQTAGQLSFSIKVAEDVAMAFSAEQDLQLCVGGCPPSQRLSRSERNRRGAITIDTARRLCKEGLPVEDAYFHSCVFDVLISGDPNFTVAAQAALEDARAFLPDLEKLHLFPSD

histidine tagged hRGMc = molecular target: T2, histidine tagged hRGMc (human, UniProt Q6ZVN8 36-400); assay: MSD-SET, full-length antibody against human RGMc-his
T2 construct: also called human RGMc-his; not shown: histidine tag
T2 sequence: T1 sequence
Experimental: The titration was then added to a pre-coated plate with a capture antibody (pre-labeled with an NHS-sulfotag) that depletes any free antigen from solution. After a 150 second incubation, the plate was washed 3 times and an SA-sulfotag reagent was added and incubated for 3 min. After additional washes the plate was read on a MesoQuickPlex SQ120.
A similar MSD-SET assay was performed with the full-length antibodies against the human RGMc-his antigen to determine binding affinity (KD)).

histidine tagged hRGMa = molecular target: T3, histidine tagged hRGMa (human, UniProt Q96B86 46-425, limits assumed); assay: Octet (BLI), antibody on AHC biosensor, his-tagged hRGMa in solution (concentrations from paragraph 460)
T3 construct: also called RGMa-his; not shown: histidine tag
T3 sequence: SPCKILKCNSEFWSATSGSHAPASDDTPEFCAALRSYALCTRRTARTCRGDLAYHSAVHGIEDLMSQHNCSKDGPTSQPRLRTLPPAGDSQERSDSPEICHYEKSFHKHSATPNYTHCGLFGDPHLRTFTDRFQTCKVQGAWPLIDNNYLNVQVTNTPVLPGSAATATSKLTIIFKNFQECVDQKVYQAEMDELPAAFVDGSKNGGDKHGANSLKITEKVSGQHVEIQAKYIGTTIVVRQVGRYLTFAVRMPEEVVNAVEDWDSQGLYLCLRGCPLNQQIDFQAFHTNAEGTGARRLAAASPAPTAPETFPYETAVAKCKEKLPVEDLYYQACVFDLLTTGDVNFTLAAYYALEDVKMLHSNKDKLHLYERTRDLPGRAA
Experimental: (§1) Antibodies that are selective for RGMc were generated using known techniques as describe herein. RGMc specificity over RGMa and RGMb was verified using an in vitro binding assay (i.e., Octet®). […] After loading, a baseline reading was obtained by placing the tips into 1× Kinetics Buffer before calculating the on rate, or association, of the antibodies by presenting them to histidine tagged hRGMc, hRGMa, or hRGMb, at varying concentrations (900 nM, 300 nM, 100 nM, and 33 nM). After reaching binding saturation, a dissociation step was performed to calculate the off rate by moving the tips back into 1× Kinetics Buffer. The rate of binding and dissociation can then be used to calculate the KD, or binding affinity of each antibody to the main target (RGMc) while ensuring no cross binding to RGM family members (RGMa and RGMb).

histidine tagged hRGMb = molecular target: T4, histidine tagged hRGMb (human, UniProt Q6NW40 46-413); assay: Octet (BLI), antibody on AHC biosensor, his-tagged hRGMb in solution (concentrations from paragraph 460)
T4 construct: not shown: histidine tag
T4 sequence: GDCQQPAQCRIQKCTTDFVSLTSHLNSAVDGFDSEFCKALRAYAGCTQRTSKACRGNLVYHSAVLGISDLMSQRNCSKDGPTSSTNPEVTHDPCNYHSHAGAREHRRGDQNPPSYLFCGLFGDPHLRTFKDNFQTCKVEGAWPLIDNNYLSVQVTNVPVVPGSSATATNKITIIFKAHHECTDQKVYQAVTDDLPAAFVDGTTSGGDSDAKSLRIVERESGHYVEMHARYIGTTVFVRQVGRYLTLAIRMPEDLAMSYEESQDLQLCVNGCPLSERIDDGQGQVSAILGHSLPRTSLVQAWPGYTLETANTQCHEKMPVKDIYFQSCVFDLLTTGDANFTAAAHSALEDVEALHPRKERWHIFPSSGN
Experimental: as §1

[2] = molecular target: T1, recombinant, soluble human RGMc fused …; assay: cell-based or functional assay; remark: listed apart in the source

| Binder | EC50 (ug/mL), BMP activity assay [1] | Kd (histidine tagged hRGMc) | binding result (histidine tagged hRGMa) | binding result (histidine tagged hRGMb) | EC50 in the BRE reporter assay (BMP6 reporter activity, luciferase RLU) [2] |
| --- | --- | --- | --- | --- | --- |
| B1 | 3.45 µg/mL | 0.024 nM | – | – | – |
| B2 | 3.87 µg/mL | 0.021 nM | – | – | – |
| B3 | 3.63 µg/mL | 0.039 nM | – | – | – |
| B4 | 4.83 µg/mL | 4.3 nM | no binding (tested: 900 nM) | no binding (tested: 900 nM) | 6.83 nM |

From patent US20210380669A1 (SCHOLAR ROCK, published 2021)
